In article PMC517823 (2004):
Residue numbers refer to the chain shown, from its start.

T1: Ffh (UniProt P0AGD7 1-453)
T1 chain: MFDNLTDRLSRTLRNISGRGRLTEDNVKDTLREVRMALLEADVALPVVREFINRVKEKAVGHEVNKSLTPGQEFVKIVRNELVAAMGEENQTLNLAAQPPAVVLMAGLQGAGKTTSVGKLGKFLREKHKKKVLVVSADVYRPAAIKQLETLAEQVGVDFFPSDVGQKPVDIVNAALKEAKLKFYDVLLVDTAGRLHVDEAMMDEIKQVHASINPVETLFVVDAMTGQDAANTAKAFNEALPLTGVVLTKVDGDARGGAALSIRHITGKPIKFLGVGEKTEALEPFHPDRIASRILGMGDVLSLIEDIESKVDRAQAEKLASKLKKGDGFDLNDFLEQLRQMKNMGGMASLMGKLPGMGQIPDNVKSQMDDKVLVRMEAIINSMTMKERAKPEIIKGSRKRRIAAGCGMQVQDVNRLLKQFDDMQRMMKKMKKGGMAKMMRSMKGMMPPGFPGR

B1: FtsY T307(112)A (domain or fragment)
chain: ASEQAVEEQPQAHTEAEAETFAADVVEVTEQVAESEKAQPEAEVVAQPEPVVEETPEPVAIEREELPLPEDVNAEAVSPEEWQAEAETVEIVEAAEEEAAKEEITDEELETALAAEAAEEAVMVVPPAEEEQPVEEIAQEQEKPTKEGFFARLKRSLLKTKENLGSGFISLFRGKKIDDDLFEELEEQLLIADVGVETTRKIITNLTEGASRKQLRDAEALYGLLKEEMGEILAKVDEPLNVEGKAPFVILMVGVNGVGKATTIGKLARQFEQQGKSVMLAAGDTFRAAAVEQLQVWGQRNNIPVIAQHTGADSASVIFDAIQAAKARNIDVLIADTAGRLQNKSHLMEELKKIVRVMKKLDVEAPHEVMLTIDASTGQNAVSQAKLFHEAVGLTGITLTKLDGTAKGGVIFSVADQFGIPIRYIGVGERIEDLRPFKADDFIEALFARED
B2: FtsY D330(135)A (protein)
chain: B1 chain with A261T, D284A
B3: FtsY K453(252)E (protein)
chain: B1 chain with A261T, K407E
B4: FtsY A336(141)W (domain or fragment)
chain: B1 chain with A261T, A290W
B5: FtsY Asn302(107) to Trp (domain or fragment)
chain: B1 chain with N256W, A261T
B6: FtsY Q339(144)A (protein)
chain: B1 chain with A261T, Q293A
B7: FtsY R333(138)A (domain or fragment)
chain: B1 chain with A261T, R287A
B8: FtsY K447(246)A (protein)
chain: B1 chain with A261T, K401A
B9: FtsY D382(187)A (protein)
chain: B1 chain with A261T, D336A
B10: FtsY K312(117)A (protein)
chain: B1 chain with A261T, K266A
B11: FtsY T307(112)W (protein)
chain: B1 chain with A261W
B12: FtsY K306(111)A (protein)
chain: B1 chain with K260A, A261T
B13: FtsY Asn302(107) to Ala (domain or fragment)
chain: B1 chain with N256A, A261T
B14: FtsY D479(278)A (protein)
chain: B1 chain with A261T, D433A
B15: FtsY G454(253)W (protein)
chain: B1 chain with A261T, G408W

Biological target: T1, Ffh
Test: GTP; inhibition assay

Binder	Ki [µM]
B1	5.5

Biological target: T1, Ffh
Test: GTP; inhibition assay
Remark: another data set of the same source

Binder	Ki [µM]
B2	2.4
B3	3.1
B4	0.16
B5	0.14
B6	3.9
B7	0.24
B8	11
B9	27
B10	2.4
B11	9.9
B12	3.5
B1	7.1
B13	0.11
B14	2.8
B15	4.2
